Assay results reported in the DeepSol protein solubility set.

Experiment: soluble on expression in E. coli; label from the status in PepcDB or PDB records

Sequence | soluble on expression in E. coli
MGSDKIHHHHHHVSGAILSGPEQKPDQDDIETALFRHLAQQGWCLSAPTPLAGGRSNHVWRAGDKVVKLYRSDAHNPLFANDPDRERAMLRALSGTGMAPRFLAHGLWQGQAWLMYTHVCGARWESDPSHVARILSIVHDQAKPRGLPFGCNGSEALAQQTRQIVSAASQGTTLLDRAPQGVVPPTSQLCLIHGDPVPGNIVAHNGTLALIDWQCPQLGDPAEDLALFLSPAMQLAYRGRVLSRQEEAEFVTAYPHPRVVARYYALKPWFHWRMAAYCAWRGETDARDLELAEI | not soluble
MYHGMNPSNGDGFLEQQQQQQQPQSPQRLLAVILWFQLALCFGPAQLTGGFDDLQVCADPGIPENGFRTPSGGVFFEGSVARFHCQDGFKLKGATKRLCLKHFNGTLGWIPSDNSICVQEDCRIPQIEDAEIHNKTYRHGEKLIITCHEGFKIRYPDLHNMVSLCRDDGTWNNLPICQGCLRPLASSNGYVNISELQTSFPVGTVISYRCFPGFKLDGSAYLECLQNLIWSSSPPRCLALEGGRPEHLFPVLYFPHIRLAAAVLYFCPVLKSSPTPAPTCSSTSTTTSLF | soluble
MSLAFGNYPFLTVSEITYTNPINSNIVSEDFDVEIGEATNGTVTSRVGIRVKDITRHIGIFGSTGSGKTNTAILLASQLNAKGVKVIILDWHGEYDQLLKNGFRIYDEKTIVKINPLHLIDLDVEDTVDIIGDVLQLTDPQRFLLYTILLKLKSYRKFSINQLLEVINSIEDTSYWMRDVKYALLRKIFILFTPTASKLFSTVDETSLNDFPDYLTSSTIINLGFISNLKLRKLYSLFLIKLIVESYIREGHHHHHH | soluble
MSDATNNAVLVRNLSPEVTKQTLLDFFSFCGEISAVKIRPSVGEGGSSSSGSPTEAMEALVIFENQSAKKTALVLDSATLKKRKISVMDATEELVSSFKDVREVDLARDSTDVPETATARQERLQGLREEFDRAIKRASDKLSDFNEKHRITEKVQEFGDLTKRKTQEINEQYRLTERAREGWQTVREKTRELDERLHLSESARDGWRSLKASVSKIMQKDRGGEVDKA | soluble
MINTNLSSNESSAVYIHIPFCEHICYYCDFNKVFLEGQPVDEYVDLLIKEMELTVAKGPIAPVDTVFVGGGTPTTLNEAQIARLCTAIHNTLPLKKDIEFSFEANPGDLSLSKLQAMQDHGVNRISMGVQSFNNELLKKIGRIHTVKDVYQSVENMRKIGFENVSIDLIFSLPGQTEADFQDTLKQALDLDLPHYSAYSLIIEPKTIFYNLMQKGKLFLPGQDAEANMYDLLLNEMEKHGRKQYEISNFAKEGFQSKHNITYWSNEHYYGFGAGAHGYVGNTRYSNFGPIKKYMEPLQENILPTFQQKELTLKEKMEEEMFLGLRKVDGVDKKHFKQKFGQDLDATFANAIQKTTAKGWLENNEENVALTRSGRFLGNNVFQEFL | not soluble
MRVLVRNDKDDFRVKAYAGTNGVLLAMDLDASRRQGLLGFAIEKQTGSKPWLFLFNSLTFPGKAHTFPQYNATPSDQAPLQKFRWADYAVNPGATLNYRVHLAYGNPDAPQLGESLQLSITADNGQPPGQRVIFNRAVAASQAFSRKFPELDALLSANKNLPIEKWPDAPRQWLENGLLEALLGFIQRATDASWSLDIAIYEYQLQAIIDAVNAAFDRGVQVRVLYHAAPGDADTTMNQASLQHLPEANKRGRVTHAIFHDKFIVLGRLDAAGQRQPQSVLCGSTNFTANGVYRQANVLHSLDHVDIATRYLEVFEQVWATPADVGATRTWLTRNNPMQPQAPLFAGFSPRSGQGDLAEFVDIINGARRDLLFVTAFALPDSILDALLGQPHDDVLRYGLQNTASRITGFHADRTAEFAATALLNNGLEGWLKEGLKGQKGNLLVHTKAIVTDFTSEAPVIISGSHNLSVGASQSNDENFLIIRGDIDLADRYGLELLRFYEHYRFRYFARQLALKQVQPLAVDDSWSNAYYLEGDLRQLSRLRFSGRLEHHHHHH | not soluble
MSLRDHGAPYGAHTLAYRPSGELLLVRHEGVDMWVLPGGELDRGESFQEAALRELGEESGIEATIEGLGMLGRVEFYCDGNMAWGVLPVYEAQAETTDIAVDDPDHEISEAQWFDKLPADTRDREEILQWRGQRFSGREGHHHHHH | soluble
MGSDKIHHHHHHMSELPNSHATTLLAAPDTEIDVRETFGIDIDMKVPAFSRADERVPDRDDTYVFDPDTTLAILAGFAYNRRVMVQGYHGTGKSTHIEQVAARLNWPCIRINLDAHISRIDLVGRDAIVLRDGLQVTEFREGLLPWALQTPTALVFDEYDAGRPDVMFVIQRVLETEGKLTLLDQNRVIRPNKFFRLFATANTVGLGDTSGLYHGTQAINQGQMDRWNLVVALNYLPEATEVEIVTKKVPDLDPKIVTDMVRVANLTRQGFINGDISTVMSPRTVISWAQNSQIFNDVGFAFRLSFLNKCDETERVLVAEYYQRVFGKDLPESVAHRG | not soluble
